From a protein production outcome set (Wang et al. 2014)

Test: label from the status in PepcDB records

With “MFSIIIPIYNSENYLRYSIESVLNQSIGFKENIELILIDDGSVDSSPQICESFKNLYPNNIKIMKIENSGPSAARNCGLSNVSERSKFIGFLDSDDAFSQNALQSVYDFFCDSEHVNIAVLPVYYTGEKEGGHKLNNRFEKGTRVINILNDYKAIHFYIGGTFYRRHTLTSTVLFDESIKFWEDAIFFNQLLLKEKRYGAVAEGKYFYRKRKEQDSLVDRSWFNKKRYTYLLNECYMTLLMDSFNKYDIVLPYLQFLIVYHIKLFLYPNYRDVYKSVLDQQEQRVFVDDFIKVLKFIDPQFIKEQDMPMYYKEFMFHLLKENTEALENIKKERVLHSSCTVTSAKIKGLRLELTGHFINQYYEMKENDRIYIKYFKRLKKCKRKELKKTIEVWGYKLRDFRYAGFVVEIPIWAFAFDFVLKTPNDSLELNHVNIFKSLLTRVFKKRLEHHHHHH” the protein production was “not failed”.

In the case of “MKVEKGDVIRLHYTGKVKETGEIFDTTYEDVAKEARIYNPNGIYGPVPIAVGAGHVLPGLDKRLIGLEVKKKYVIEVPPEEGFGLRDPGKIKIIPLGKFRKSGIIPYPGLEIEVETENGRKMRGRVLTVSGGRVRVDFNHPLAGKTLVYEVEVVEKIEDPIEKIKALIELRLPMIDKDKVIIEISEKDVKLNFKDVDIDPKTLILGEILLESDLKFIGYEKVEFEPTIEELLKPKSAEEQESPNEEQQEESESKAEES”, the protein production is reported as “failed”.

For “MASILFFEKPGCQNNTRQKAWLELSGHTVDAVNILEYAWTKEELSLYLGENPISACFNPAAPEVKTGSMKPELLNKEDALDAMIKKPLLIRRPLLKIGNHYLQGFDTAVLRTIIS”, the protein production was “failed”.

For “MAPQSHGRSRINSIDMMRGLVMLIMLLDHVREQFFLHMQVSDPMDLSTTTWDLFVSRFAAHFCAPVFVFLTGVSAWLYANRGHGEPRSVRVFLLKRGLFLIALEVLVINFSWMGNYHTLWLQVIWVIGLSMLALAALIKLPRLWMALLGLLIVFGHNLLSPIHFEPDTWGYSLWTILHDRGYLIAEGDLKLKVSYPLLPWIGVILLGYVAGPLFSRKFEAWQRQQRLMLLGVGCFAFFCLLRGFNLYGETLPWQVGESIGQTLMSVFNLTKYPPSLSFLLVTLGGMFCGLVLFERYFAAGSLFSWIGQKLAVFGSVPMFFYILHLYVLLLLYLVAKGLFGANHGELFGVAHMGWVWLISLVLIPLLYYPVSWFSRYKSQSQQAWLKYL”, the protein production was “failed”.

With “MSIRILPENEIKPSASAFEIPPLLFANPKNLYTRRAKRLRELAKNNPLRDYLEFAAHLVDIQLTLLETAPIGNYAEKLTAYLTENQGQKPLNKQQFARDEKWLELLLALIKQCKPYATGAILTTLEFLEKASYAELNNLADHLLNERYEQVSPDQSVFIWLALSLYWTQLAQQLPRHTQAEIGERHTCPVCGSAPITSVIHLDKTQGLRYLHCALCESEWNMTRAQCSNCDESGDLNYWSFDTVEAPIKAESCGDCHSYLKVLYQEKDPYVEPLADDLASLMLDIEMEQKGFVRSGLNPFLFSIE” the protein production was “not failed”.

In the case of “MSLTTPTMIAAVVEEANGPFVLRKLARPQPAPGQVLVQIEASGTNPLDAKIRAGEAPHAQQPLPAILGMDLAGTVVAVGPEVDSFRVGDAVFGLTGGVGGLQGTHAQFAAVDARLLASKPAALTMRQASVLPLVFITAWEGLVDRAQVQDGQTVLIQGGGGGVGHVAIQIALARGARVFATARGSDLEYVRDLGATPIDASREPEDYAAEHTAGQGFDLVYDTLGGPVLDASFSAVKRFGHVVSCLGWGTHKLAPLSFKQATYSGVFTLHTLLANEGLAHFGEMLREADALVQTGKLAPRLDPRTFSIAEIGSAYDAVLGRNDVPRQRGKIAITVEGHHHHHH”, the protein production is reported as “not failed”.

With “MGNYKFRISEMLPNAWFHKLKDVTKHSKPKNKASSSSSNTCSKKKPSSDSLPQHSYFSNSLVANNPPHHNSPRNSLHTKKMSKRKTLYKPSLKPLTPPPLLVSASFNKSKINDQDSSYSLFPAIETSPESFVYSFYEEDDDDEFVEFSNFKINTKNKAFTKQKVKVIDSVEKACTASKPIKKPQKSHLSVKISRDEDDNEYKAEKKYQRQVSSGRKPSAGINLKRVNSPRIQLSGTRRSTSRRSESKQDVLESFAVMKRSVDPKKDFRESMIEMIEENNIRASKDLEDLLACYLTLNPKEYHDLIIHVFEQIWLQLTKTK” the protein production was “failed”.

For “MAVEVVYRSSRDPERLFMDKAEADRHDKMLELAERLAEVLHKAVPSLTEQQVEEAGIYMAKNRDVFARAFKSQPDALAELLEGTAAE”, the protein production was “not failed”.

For “MKALEGFTILLALVGVIPRIEGCIRVPPGVTAAKSPVDDNYVLSVNGNTQSYVPGQRYNVSLSAFSGLSFISFMLALDLESGDGDGDANALGTWEIADLAETRFSPRCPNLVENTNTNVKTRVDVFWVAPSSPGQGCILLRATVMQHRDVWFMDDGFLTKRMCEEEVDDIDTQPSIVDPCCACDEAKYELTFEGKWSRHTHPKDFPANSWRTRFSDIIGASHTLDYRFWQYGELASEGLREVAEHGSTRTLESELKDQSEHIRTIIKARGIAYPNVTGKTFAVFRVDSNHHLISLVSMVDPSPDWIVGVSGLELCLPNCSWVENKVHNLYPWDAGTDSGPSYMSADQPQVPPDVVRRIKSNFPNDPRSPFYDPTGAQMKPLATLHINRRRLYEKNCESSDSEQVPPECATNSWSRWDECTTKCGPGKQYRIREFKNPALASRHRCNNALREEKNCVGHKCAGFNEETAEGGEPEVAPSPGSSDDPQCGLSDWSEWSSCTVTCGTGEMTRSRHYLNKKAKKKCQKASRARLHETKICEAMECGGDIENEGGAGEPEEEQAGGDGGGSAEKRSIFRNFESYSQHREDYIPPVCGVTPWSDFSPCMGPCGGHGKRQRIRKVWNNNQVYGVTDPNDDGQDPCRHIKLHEEVNCTNPSCDTIVPGFCYDELTDSPCRDNDVANFWYYDHVSDQCAIYWSDRCDTNRNKFKSKEECEETCRLPRHKQELQHDGIPAIDCLVSDWVSHSCNASCGDGFQLRTRRVLRTPKYGGKPCPKHLVRLDRCYQRCDDMYSISGRGFGERRHVVRAPQPEPQDECRYSEWSAWTPCTATCGDNAVRQRTRTLMNTDLSYKCKDRVRMEKCVMMPCQLTSNDDPERW”, the protein production was “failed”.

In the case of “MSRGLLEACIEFIRETPAGDALRIVAYEFTFKRILLELKAALERGVDVRIVYHATTANEKAIADAKLPENSKGVQILFKRTRPQTPHNKFIVRLKKGKTPVSVWTGSTNFTPSGFLGQTNVGHKVTDGDIAKIYLQLWEGLKADPDDFDATQLEHHHHHH”, the protein production is reported as “not failed”.

For “MEKLSAIKKPDINVADAWEQYWNKTLVNSTPVLWDANVERAVVVDLPRFELLFNPELPLIDFACGNGTQTKFLSQFFPRVIGLDVSKSALEIAAKENTAANISYRLLDGLVPEQAAQIHSEIGDANIYMRTGFHHIPVEKRELLGQSLRILLGKQGAMYLIELGTGCIDFFNSLLEKYGQLPYELLLVMEHGIRPGIFTAEDIELYFPDFEILSQGEGLFQSIHKLPDGNYATPPAFWAVIKHR”, the protein production was “not failed”.

For “MIYQVDGKTIVLVLEQGEDIVEAVTDIAREQNGKFGTVSGIGACSSAELNFYNLETQTYEKKLIDEPLELIGLMGNISHIDEQPFAHLHATFGTNQYETLSGHLTKAVVSATAEIIITMTNLDINRKHNETIGLNLLDLLEHHHHHH”, the protein production was “not failed”.

In the case of “SISNRDTNGMPFAKETLEQQQAVEKKNEILEMSYEIAKLLETGLDRETLQVAIELLEQGFDPYALASVIKELKRGNNQTTE”, the protein production is reported as “failed”.

For “MEIRTFLERALKEDLGHGDLFERVLEKDFKATAFVRAKQEGVFSGEKYALELLEMTGIECVQTIKDKERFKPKDALMEIRGDFSMLLKVERTLLNLLQHSSGIATLTSRFVEALNSHKVRLLDTRKTRPLLRIFEKYSVLNGGASNHRLGLDDALMLKDTHLRHVKDLKSFLTHARKNLPFTAKIEIECESFEEAKNAMNAGADIVMCDNLSVLETKEIAAYRDAHYPFVLLEASGNISLESINAYAKSGVDAISVGALIHQATFIDMHMKMA”, the protein production was “failed”.

For “MAERTLVKPCTSVPPTMVRVPNVTRADALAAARNPLALIAERWTPAPRTVRRAALAALVMAVVIVVTGGAVRLTGSGLGCPTWPKCTDDSLTTTSAMGFHGVIEFGNRMLTYVLCAAVGWAIIAARSQKPWRRSLTRLGWAQFWIVMSNAILGGIVVLVGLNPYTVAAHFLLSTALIAVATLMWQRACEGDGAPRPLVGKAVQQLVWFLVTASVLLIAVGTVVTGAGPHAGDSSDVERMPLDWETVSKLHAVLAWIVVTLTFALWFVLKAVDAPKGPLHRTRDLFLILLAQGVIGYVQYFTDLPEALVALHMLGSCLVWIGVLRVLLSLRERPEAVADLPGPSTESALTRA”, the protein production was “failed”.
